Data as given in patent US11787839B2, “Targeting α2δ-1-bound glutamate receptors for treating diseases and disorders” (Board of Regents, The University of Texas System, priority 2017, dated 2023).

Experiments:
α2δ-1-GluN1 interaction = target: T1, α2δ-1-GluN1 interaction (Rattus norvegicus, UniProt P35439+Q00959); assay type: cell-based; details: HEK293; 0.01, 0.1, or 1 mM peptide
T1 construct: expressed in transfected cells; host or cells: HEK293

α2δ-1-Cav2.2 interaction = target: T2, α2δ-1-Cav2.2 interaction (Rattus norvegicus, UniProt P54290+Q02294); assay: Co-IP of α2δ-1 and Cav2.2 in spinal cord after intrathecal injection; assay type: in vivo; details: SNL and sham rats, intrathecal 1 μg, 60 min
T2 construct: from tissue; host or cells: rat dorsal spinal cord (L5-L6) membrane extracts after intrathecal injection
Description: Whole-cell IBa was elicited by a depolarizing pulse to 0 mV for 200 ms from a holding potential of −90 mV. […] Data are means±s.e.m. The numbers of cells recorded in each group are indicated in parentheses (cells from 4 separate experiments). […] The dorsal spinal cord at the L5 and L6 level was removed 60 min after intrathecal injection of α2δ-1Tat peptide (1 μg) or control peptide (1 μg). Membrane proteins were immunoprecipitated first with a rabbit anti-α2δ-1 or anti-IgG antibody. Western immunoblotting was performed by using an anti-Cav2.2 antibody. S, sham; L, SNL; C, control peptide; P, α2δ-1Tat peptide. Data are means±s.e.m.
Coimmunoprecipitation using spinal cord tissue membrane extracts: The dorsal quadrants of rat spinal cords at the L5 and L6 levels or the frozen lumbar spinal cord tissues from four human donors (2 males and 2 females, age ranged 18-42 years, post-mortem interval of 17-29 h; supplied by University of Maryland Brain and Tissue Bank) were dissected and homogenized in ice-cold hypotonic buffer (20 mM Tris [pH 7.4], 1 mM CaCl2, 1 mM MgCl2, and protease inhibitors) for membrane preparation. The nuclei and unbroken cells were removed by centrifugation at 300×g for 5 min. The supernatant was centrifuged for 20 min at 21,000×g. […]

[1] = target: T3, α2δ-1-GluN1 protein complex (Mus musculus, UniProt O08532+P35438); assay: Co-IP of α2δ-1 and GluN1 in mouse brain slices; assay type: cell-based
T3 construct: from tissue; host or cells: mouse brain slices (hippocampal CA1, hypothalamic PVN, brain tissue membrane extracts)
Description: FIGS. 22A-22D: α2δ-1-bound NMDARs contribute to brain injury and neurological deficit caused by MCAO in the brain. (A) Upper: Original gel images of coimmunoprecipitation (co-IP) analysis show the interaction between α2δ-1 and GluN1 in two samples from mouse brain tissues; Lower: Effect of α2δ-1Tat peptide (1 μM for 60 min) on the α2δ-1-GluN1 protein complex in mouse brain tissues (n=6 mice per group). (B) Representative gel images and quantification of co-IP analysis show the effect of OGD on the α2δ-1-GluN1 or α2δ-1-Cav2.2 association in mouse brain tissues (n=6 mice per group). IgG and input were used as negative and positive controls, respectively. (C) Original gel images and quantification of co-IP analysis show the effect of α2δ-1Tat peptide (P) and control peptide (C; both 1 μM for 30 min) on the α2δ-1-GluN1 or α2δ-1-Cav2.2 association in mouse brain slices subjected to OGD (O, n=6 mice per group). (D) Neurological severity scores (left) and representative TTC staining and quantification (right) of brain infarct volume in MCAO mice treated with α2δ-1Tat peptide or control peptide (both 200 μg/kg, i.p.) at 15 min before MCAO and immediately before reperfusion (n=8 mice per group). Data are shown as means±SEM. *p<0.05, **p<0.01 compared with the control peptide- or vehicle-treated group (paired Student's t-test for panels B-D and F; Mann-Whitney test for panel E). […]

T3 sequence (O08532 25-956 limits assumed, other chains not shown): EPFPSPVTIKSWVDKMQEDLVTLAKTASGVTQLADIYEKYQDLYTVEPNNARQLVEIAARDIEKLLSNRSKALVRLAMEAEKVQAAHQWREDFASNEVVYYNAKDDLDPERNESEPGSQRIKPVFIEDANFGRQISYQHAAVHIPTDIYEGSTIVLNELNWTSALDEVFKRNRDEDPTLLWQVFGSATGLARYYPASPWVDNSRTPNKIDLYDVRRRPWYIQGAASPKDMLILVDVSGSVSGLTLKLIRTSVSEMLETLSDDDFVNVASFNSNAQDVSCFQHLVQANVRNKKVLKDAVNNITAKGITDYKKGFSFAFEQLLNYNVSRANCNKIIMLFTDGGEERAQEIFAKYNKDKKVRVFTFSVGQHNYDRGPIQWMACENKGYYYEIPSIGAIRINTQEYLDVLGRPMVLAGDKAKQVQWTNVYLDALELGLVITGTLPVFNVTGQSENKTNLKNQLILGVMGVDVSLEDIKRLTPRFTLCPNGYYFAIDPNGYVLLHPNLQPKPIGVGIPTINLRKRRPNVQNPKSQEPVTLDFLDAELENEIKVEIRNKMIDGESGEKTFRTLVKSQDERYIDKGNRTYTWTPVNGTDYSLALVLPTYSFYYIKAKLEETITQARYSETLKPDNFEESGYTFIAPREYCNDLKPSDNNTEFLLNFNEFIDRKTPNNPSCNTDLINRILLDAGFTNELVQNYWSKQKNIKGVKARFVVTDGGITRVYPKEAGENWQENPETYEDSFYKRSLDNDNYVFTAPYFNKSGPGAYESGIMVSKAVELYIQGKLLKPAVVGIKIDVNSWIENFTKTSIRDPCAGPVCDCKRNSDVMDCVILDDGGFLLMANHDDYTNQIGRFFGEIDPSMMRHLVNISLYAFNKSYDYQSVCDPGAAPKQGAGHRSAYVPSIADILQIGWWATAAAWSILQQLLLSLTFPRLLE
T2 sequence (P54290 25-944 limits assumed): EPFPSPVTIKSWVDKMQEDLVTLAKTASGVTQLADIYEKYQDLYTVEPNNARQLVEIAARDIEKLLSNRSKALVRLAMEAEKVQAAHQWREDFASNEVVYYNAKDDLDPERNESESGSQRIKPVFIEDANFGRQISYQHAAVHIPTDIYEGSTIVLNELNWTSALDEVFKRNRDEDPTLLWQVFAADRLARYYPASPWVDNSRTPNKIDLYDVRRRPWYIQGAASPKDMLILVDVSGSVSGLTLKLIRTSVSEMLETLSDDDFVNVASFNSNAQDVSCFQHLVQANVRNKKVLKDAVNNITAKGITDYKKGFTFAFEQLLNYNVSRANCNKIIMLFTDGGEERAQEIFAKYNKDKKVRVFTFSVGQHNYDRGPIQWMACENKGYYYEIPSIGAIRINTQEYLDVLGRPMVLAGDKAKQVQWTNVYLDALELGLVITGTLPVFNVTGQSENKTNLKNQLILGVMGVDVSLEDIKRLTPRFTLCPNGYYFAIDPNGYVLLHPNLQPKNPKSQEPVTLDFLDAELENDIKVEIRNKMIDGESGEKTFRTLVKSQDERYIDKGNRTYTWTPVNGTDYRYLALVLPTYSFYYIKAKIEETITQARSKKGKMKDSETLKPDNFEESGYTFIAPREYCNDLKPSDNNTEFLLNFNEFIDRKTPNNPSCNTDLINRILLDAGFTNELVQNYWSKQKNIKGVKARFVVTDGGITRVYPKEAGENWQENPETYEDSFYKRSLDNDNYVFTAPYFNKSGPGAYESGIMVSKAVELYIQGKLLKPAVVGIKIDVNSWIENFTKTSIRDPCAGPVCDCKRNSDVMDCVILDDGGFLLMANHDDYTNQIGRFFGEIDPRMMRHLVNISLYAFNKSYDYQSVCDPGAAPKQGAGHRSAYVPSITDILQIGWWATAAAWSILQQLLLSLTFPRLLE
T2 sequence (Q02294 whole entry): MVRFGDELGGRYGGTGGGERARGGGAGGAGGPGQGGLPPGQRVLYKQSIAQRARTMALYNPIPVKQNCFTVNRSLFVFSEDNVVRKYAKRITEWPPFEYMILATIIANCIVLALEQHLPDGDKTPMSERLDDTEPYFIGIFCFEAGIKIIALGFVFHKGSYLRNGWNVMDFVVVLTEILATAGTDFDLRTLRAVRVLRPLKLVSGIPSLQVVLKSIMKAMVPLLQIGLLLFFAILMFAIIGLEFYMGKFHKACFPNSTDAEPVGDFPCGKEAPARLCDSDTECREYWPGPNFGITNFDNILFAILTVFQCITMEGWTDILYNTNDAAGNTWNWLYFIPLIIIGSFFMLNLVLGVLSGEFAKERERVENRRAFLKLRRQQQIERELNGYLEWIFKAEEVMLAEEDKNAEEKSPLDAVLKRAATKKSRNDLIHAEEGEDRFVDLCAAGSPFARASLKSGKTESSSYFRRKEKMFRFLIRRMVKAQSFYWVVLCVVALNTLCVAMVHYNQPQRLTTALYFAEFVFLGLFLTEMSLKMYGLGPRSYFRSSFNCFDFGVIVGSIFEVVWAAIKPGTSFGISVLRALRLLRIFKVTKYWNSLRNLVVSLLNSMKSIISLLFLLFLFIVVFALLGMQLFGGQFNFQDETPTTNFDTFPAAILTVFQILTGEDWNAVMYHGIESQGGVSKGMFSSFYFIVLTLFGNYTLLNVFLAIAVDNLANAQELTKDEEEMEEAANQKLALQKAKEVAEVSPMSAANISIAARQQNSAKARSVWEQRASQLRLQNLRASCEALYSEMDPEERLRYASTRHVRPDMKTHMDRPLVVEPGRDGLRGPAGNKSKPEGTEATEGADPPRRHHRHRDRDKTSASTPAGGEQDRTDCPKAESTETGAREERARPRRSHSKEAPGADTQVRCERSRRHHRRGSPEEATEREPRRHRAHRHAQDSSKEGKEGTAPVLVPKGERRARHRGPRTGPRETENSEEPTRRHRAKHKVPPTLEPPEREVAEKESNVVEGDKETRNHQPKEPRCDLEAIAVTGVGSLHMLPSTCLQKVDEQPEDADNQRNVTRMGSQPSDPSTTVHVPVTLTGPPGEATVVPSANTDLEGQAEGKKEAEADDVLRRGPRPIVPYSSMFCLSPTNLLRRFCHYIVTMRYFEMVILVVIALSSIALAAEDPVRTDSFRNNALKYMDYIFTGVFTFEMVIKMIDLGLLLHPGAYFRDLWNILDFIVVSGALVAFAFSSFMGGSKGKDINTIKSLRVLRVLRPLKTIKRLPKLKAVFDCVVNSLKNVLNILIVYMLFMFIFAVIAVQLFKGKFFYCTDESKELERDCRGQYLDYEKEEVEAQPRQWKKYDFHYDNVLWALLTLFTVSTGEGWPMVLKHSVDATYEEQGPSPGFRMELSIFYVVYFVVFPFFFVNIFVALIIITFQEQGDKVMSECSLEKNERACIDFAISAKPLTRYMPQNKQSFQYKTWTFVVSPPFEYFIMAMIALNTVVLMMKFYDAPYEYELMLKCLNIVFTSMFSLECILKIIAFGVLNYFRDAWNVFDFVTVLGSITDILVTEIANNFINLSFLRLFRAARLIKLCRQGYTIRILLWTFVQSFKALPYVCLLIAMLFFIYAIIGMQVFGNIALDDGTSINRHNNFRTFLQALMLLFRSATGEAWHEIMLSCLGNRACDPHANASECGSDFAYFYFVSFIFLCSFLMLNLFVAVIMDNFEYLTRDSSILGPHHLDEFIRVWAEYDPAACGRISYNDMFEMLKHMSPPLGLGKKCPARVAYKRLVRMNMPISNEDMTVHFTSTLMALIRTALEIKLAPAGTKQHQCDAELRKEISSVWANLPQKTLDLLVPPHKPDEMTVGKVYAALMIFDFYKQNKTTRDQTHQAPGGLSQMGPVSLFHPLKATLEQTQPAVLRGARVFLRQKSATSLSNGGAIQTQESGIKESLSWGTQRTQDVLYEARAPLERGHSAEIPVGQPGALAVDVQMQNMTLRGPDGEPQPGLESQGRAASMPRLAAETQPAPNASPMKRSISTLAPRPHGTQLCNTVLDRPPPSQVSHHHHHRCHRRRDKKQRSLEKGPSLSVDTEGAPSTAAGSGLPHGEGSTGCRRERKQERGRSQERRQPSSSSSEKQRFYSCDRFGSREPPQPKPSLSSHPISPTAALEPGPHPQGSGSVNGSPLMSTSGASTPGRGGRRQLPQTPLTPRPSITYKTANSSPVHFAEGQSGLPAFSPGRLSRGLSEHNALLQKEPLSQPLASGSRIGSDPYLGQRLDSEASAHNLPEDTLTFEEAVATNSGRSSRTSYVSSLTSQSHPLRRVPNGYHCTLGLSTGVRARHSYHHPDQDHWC

YGRKKRRQRRRVSGLNPSLWSIFGLQFILLWLVSGSRHYLW (a2d1 peptide) [α2δ-1Tat peptide, 30-amino-acid peptide mimicking the C-terminal domain of α2δ-1 fused to the cell-penetrating peptide Tat]
direct interaction between α2δ-1 and GluN1 (α2δ-1-GluN1 interaction): disrupted | interaction between α2δ-1 and Cav2.2 proteins in the spinal cord tissue (α2δ-1-Cav2.2 interaction): lack of an effect | interaction between α2δ-1 and Cav2.2 proteins in the spinal cord tissue (α2δ-1-Cav2.2 interaction; listed as α2δ-1 Tat peptide): had no effect | α2δ-1-GluN1 interaction in brain tissues subjected to OGD ([1]; OGD, 1 μM for 30 min): substantially reduced | α2δ-1-GluN1 protein complex in brain tissues ([1]; brain slices, 1 μM for 60 min): large reduction
